Assay results published in article PMC10715038 (Microbiology Spectrum, 2023).

Biological target: T1, SARS-CoV-2 WHU01 Spike RBD, monomeric (SARS-CoV-2, UniProt P0DTC2)
T1 construct: not shown: Fc (human IgG1), C-terminal, cleaved
Assay: SPR
Details: both partners purified

B1: Dog ACE2-huFc (soluble dog ACE2 ectodomain, human IgG1 Fc fusion) (Fc fusion)
chain: QSTEDLVKTFLEKFNYEAEELSYQSSLASWNYNINITDENVQKMNNAGAKWSAFYEEQSKLAKTYPLEEIQDSTVKRQLRALQHSGSSVLSADKNQRLNTILNSMSTIYSTGKACNPSNPQECLLLEPGLDDIMENSKDYNERLWAWEGWRSEVGKQLRPLYEEYVALKNEMARANNYEDYGDYWRGDYEEEWENGYNYSRNQLIDDVEHTFTQIMPLYQHLHAYVRTKLMDTYPSYISPTGCLPAHLLGDMWGRFWTNLYPLTVPFGQKPNIDVTNAMVNQSWDARKIFKEAEKFFVSVGLPNMTQEFWENSMLTEPSDSRKVVCHPTAWDLGKGDFRIKMCTKVTMDDFLTAHHEMGHIQYDMAYAAQPFLLRNGANEGFHEAVGEIMSLSAATPNHLKNIGLLPPSFFEDSETEINFLLKQALTIVGTLPFTYMLEKWRWMVFKGEIPKDQWMKTWWEMKRNIVGVVEPVPHDETYCDPASLFHVANDYSFIRYYTRTIYQFQFQEALCQIAKHEGPLHKCDISNSSEAGQKLLEMLKLGKSKPWTYALEIVVGAKNMDVRPLLNYFEPLFTWLKEQNRNSFVGWNTDWSPYADQSIKVRISLKSALGEKAYEWNNNEMYLFRSSIAYAMRQYFSEVKNQTIPFVEDNVWVSDLKPRISFNFFVTSPGNVSDIIPRTEVEEAIRMYRSRINDVFRLDDNSLEFLGIQPTLGPPYEPPVTI
notes: source: 293F cells, transfected, purified from supernatant (Protein A Sepharose)
With B1 the Kd was 275 nM, the koff was 0.0176 s⁻¹ and the kon was 60000 M⁻¹ s⁻¹.
